Measurements reported in the Human Domainome abundance scans (Beltran et al. 2025).
± gives the uncertainty stated by the source.

B1: Transcription elongation regulator 1-like protein, residues 448 to 504; numbered along this chain, Q5VWI1 (parent)
chain: LPLEERVTHFRDMLLERGVSAFSTWEKELHKIVFDPRYLLLNSEERKQIFEQFVKTR

Variants of: B1
Assay: abundance fitness (aPCA) (normalised: wild type 0, dead -1); higher = more abundant; growth selection in yeast, the domain comes from the species named
Settings: Homo sapiens

Variant | abundance fitness
LPLEERHTHFRDMLLERGVSAFSTWEKELHKIVFDPRYLLLNSEERKQIFEQFVKTR [V7H] | -0.303 ± 0.22
LPLEERITHFRDMLLERGVSAFSTWEKELHKIVFDPRYLLLNSEERKQIFEQFVKTR [V7I] | 0.199 ± 0.16
LPLEERGTHFRDMLLERGVSAFSTWEKELHKIVFDPRYLLLNSEERKQIFEQFVKTR [V7G] | -0.407 ± 0.14
LPLEERKTHFRDMLLERGVSAFSTWEKELHKIVFDPRYLLLNSEERKQIFEQFVKTR [V7K] | 0.843 ± 0.13
LPLEERSTHFRDMLLERGVSAFSTWEKELHKIVFDPRYLLLNSEERKQIFEQFVKTR [V7S] | -0.334 ± 0.24
LPLEERWTHFRDMLLERGVSAFSTWEKELHKIVFDPRYLLLNSEERKQIFEQFVKTR [V7W] | -0.594 ± 0.5
LPLEERATHFRDMLLERGVSAFSTWEKELHKIVFDPRYLLLNSEERKQIFEQFVKTR [V7A] | 0.039 ± 0.16
LPLEERYTHFRDMLLERGVSAFSTWEKELHKIVFDPRYLLLNSEERKQIFEQFVKTR [V7Y] | -0.075 ± 0.35
LPLEERMTHFRDMLLERGVSAFSTWEKELHKIVFDPRYLLLNSEERKQIFEQFVKTR [V7M] | 0.434 ± 0.21
LPLEERCTHFRDMLLERGVSAFSTWEKELHKIVFDPRYLLLNSEERKQIFEQFVKTR [V7C] | -0.568 ± 0.2
LPLEERLTHFRDMLLERGVSAFSTWEKELHKIVFDPRYLLLNSEERKQIFEQFVKTR [V7L] | -0.096 ± 0.15
LPLEERETHFRDMLLERGVSAFSTWEKELHKIVFDPRYLLLNSEERKQIFEQFVKTR [V7E] | -0.406 ± 0.4
LPLEERFTHFRDMLLERGVSAFSTWEKELHKIVFDPRYLLLNSEERKQIFEQFVKTR [V7F] | 0.022 ± 0.14
LPLEERTTHFRDMLLERGVSAFSTWEKELHKIVFDPRYLLLNSEERKQIFEQFVKTR [V7T] | -0.34 ± 0.094
LPLEERVTHTRDMLLERGVSAFSTWEKELHKIVFDPRYLLLNSEERKQIFEQFVKTR [F10T] | -0.679 ± 0.4
LPLEERVTHHRDMLLERGVSAFSTWEKELHKIVFDPRYLLLNSEERKQIFEQFVKTR [F10H] | 0.065 ± 0.34
LPLEERVTHNRDMLLERGVSAFSTWEKELHKIVFDPRYLLLNSEERKQIFEQFVKTR [F10N] | -0.237 ± 0.43
LPLEERVTHARDMLLERGVSAFSTWEKELHKIVFDPRYLLLNSEERKQIFEQFVKTR [F10A] | -0.717 ± 0.14
LPLEERVTHRRDMLLERGVSAFSTWEKELHKIVFDPRYLLLNSEERKQIFEQFVKTR [F10R] | -0.677 ± 0.15
LPLEERVTHWRDMLLERGVSAFSTWEKELHKIVFDPRYLLLNSEERKQIFEQFVKTR [F10W] | -0.536 ± 0.27
LPLEERVTHPRDMLLERGVSAFSTWEKELHKIVFDPRYLLLNSEERKQIFEQFVKTR [F10P] | -0.227 ± 0.46
LPLEERVTHQRDMLLERGVSAFSTWEKELHKIVFDPRYLLLNSEERKQIFEQFVKTR [F10Q] | -0.884 ± 0.34
LPLEERVTHVRDMLLERGVSAFSTWEKELHKIVFDPRYLLLNSEERKQIFEQFVKTR [F10V] | -0.97 ± 0.36

Variant | abundance fitness
LPLEERVTHMRDMLLERGVSAFSTWEKELHKIVFDPRYLLLNSEERKQIFEQFVKTR [F10M] | -0.782 ± 0.2
LPLEERVTHGRDMLLERGVSAFSTWEKELHKIVFDPRYLLLNSEERKQIFEQFVKTR [F10G] | -0.727 ± 0.11
LPLEERVTHLRDMLLERGVSAFSTWEKELHKIVFDPRYLLLNSEERKQIFEQFVKTR [F10L] | -0.682 ± 0.21
LPLEERVTHCRDMLLERGVSAFSTWEKELHKIVFDPRYLLLNSEERKQIFEQFVKTR [F10C] | -1.1 ± 0.32
LPLTERVTHFRDMLLERGVSAFSTWEKELHKIVFDPRYLLLNSEERKQIFEQFVKTR [E4T] | -0.631 ± 0.23
LPLSERVTHFRDMLLERGVSAFSTWEKELHKIVFDPRYLLLNSEERKQIFEQFVKTR [E4S] | 0.033 ± 0.21
LPLRERVTHFRDMLLERGVSAFSTWEKELHKIVFDPRYLLLNSEERKQIFEQFVKTR [E4R] | -0.867 ± 0.2
LPLEERVFHFRDMLLERGVSAFSTWEKELHKIVFDPRYLLLNSEERKQIFEQFVKTR [T8F] | -0.291 ± 0.31
LPLEERVSHFRDMLLERGVSAFSTWEKELHKIVFDPRYLLLNSEERKQIFEQFVKTR [T8S] | -0.149 ± 0.12
LPLEERVLHFRDMLLERGVSAFSTWEKELHKIVFDPRYLLLNSEERKQIFEQFVKTR [T8L] | -0.471 ± 0.17
LPLEERVHHFRDMLLERGVSAFSTWEKELHKIVFDPRYLLLNSEERKQIFEQFVKTR [T8H] | -0.39 ± 0.14
LPLEERVIHFRDMLLERGVSAFSTWEKELHKIVFDPRYLLLNSEERKQIFEQFVKTR [T8I] | -0.386 ± 0.2
LPLEERVDHFRDMLLERGVSAFSTWEKELHKIVFDPRYLLLNSEERKQIFEQFVKTR [T8D] | -0.45 ± 0.18
LPLEERVMHFRDMLLERGVSAFSTWEKELHKIVFDPRYLLLNSEERKQIFEQFVKTR [T8M] | -0.396 ± 0.43
LPLEERVCHFRDMLLERGVSAFSTWEKELHKIVFDPRYLLLNSEERKQIFEQFVKTR [T8C] | -0.372 ± 0.41
LPLEERVRHFRDMLLERGVSAFSTWEKELHKIVFDPRYLLLNSEERKQIFEQFVKTR [T8R] | -0.631 ± 0.34
LPLEERVVHFRDMLLERGVSAFSTWEKELHKIVFDPRYLLLNSEERKQIFEQFVKTR [T8V] | -0.287 ± 0.11
LPLEERVNHFRDMLLERGVSAFSTWEKELHKIVFDPRYLLLNSEERKQIFEQFVKTR [T8N] | -0.275 ± 0.17
LPLEERVQHFRDMLLERGVSAFSTWEKELHKIVFDPRYLLLNSEERKQIFEQFVKTR [T8Q] | -0.563 ± 0.41
LPLEERVGHFRDMLLERGVSAFSTWEKELHKIVFDPRYLLLNSEERKQIFEQFVKTR [T8G] | -0.35 ± 0.13
LPLEERVPHFRDMLLERGVSAFSTWEKELHKIVFDPRYLLLNSEERKQIFEQFVKTR [T8P] | -0.013 ± 0.37
LPLEGRVTHFRDMLLERGVSAFSTWEKELHKIVFDPRYLLLNSEERKQIFEQFVKTR [E5G] | -0.195 ± 0.19
LPLEQRVTHFRDMLLERGVSAFSTWEKELHKIVFDPRYLLLNSEERKQIFEQFVKTR [E5Q] | -0.357 ± 0.31
